Data on one substance can be found in article PMC4720288.

The target in this experiment is human MALT1_(Casp-Ig3)(338–719) (human) (UniProt Q9UDY8). In words: crystal structure; in-house X-ray structure of apo MALT1_(Casp-Ig3), data not published.

Broadly, the stoichiometry N is a count of units in the complex or per binding partner.

Substance “human MALT1_(Casp-Ig3)(338–719) (from UniProt Q9UDY8 338-719) (domain or fragment)” displayed a stoichiometry N of 2.
